Data published in patent US20120316071A1 (published 2012).

Tests used:
[1] = target: rHuman CD44/Fc Chimera, CF (R&D Systems Cat#3660-CD) (human, UniProt P16070 21-220); assay: ECL multispot (MSD) assay, antigen spotted on plate, Fab in solution; blank spot of this well 270
[2] = target: rHuman Erythropoietin R/Fc Chimera, CF (R&D Systems Cat#963-ER) (human, UniProt P19235 25-250); assay: as above
[3] = target: T1, rHuman Notch-1/Fc Chimera, CF (R&D Systems Cat#3647-TK) (human); assay: as above
T1 chain: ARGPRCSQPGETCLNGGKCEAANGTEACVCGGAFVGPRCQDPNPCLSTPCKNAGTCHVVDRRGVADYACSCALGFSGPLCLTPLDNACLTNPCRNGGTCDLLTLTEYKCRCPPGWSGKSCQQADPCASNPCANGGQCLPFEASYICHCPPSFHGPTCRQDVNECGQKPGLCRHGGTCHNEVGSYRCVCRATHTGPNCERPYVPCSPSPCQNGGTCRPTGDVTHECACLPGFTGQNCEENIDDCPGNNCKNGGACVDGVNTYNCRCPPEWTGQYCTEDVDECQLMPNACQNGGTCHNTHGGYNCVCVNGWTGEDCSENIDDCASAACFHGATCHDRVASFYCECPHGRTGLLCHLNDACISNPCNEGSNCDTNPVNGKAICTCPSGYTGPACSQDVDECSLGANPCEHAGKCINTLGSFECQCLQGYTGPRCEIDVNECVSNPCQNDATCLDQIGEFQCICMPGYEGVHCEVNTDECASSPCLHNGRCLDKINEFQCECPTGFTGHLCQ

[4] = target: rHuman HGF R/c-MET/Fc Chimera, CF (R&D Systems Cat#358-MT/CF) (human, UniProt P08581 25-932); assay: as above
[5] = target: rHuman P-Cadherin/Fc Chimera, CF (R&D Systems Cat#861-PC) (human, UniProt P22223 108-654); assay: as above
[6] = target: T2, rHuman CD44/Fc Chimera, CF (R&D Systems Cat#3660-CD) (human, UniProt P16070 21-220); assay: ECL Multispot (MSD), antigen spotted on plate, Fab in solution; blank spot 256
[7] = target: T3, rHuman P-Cadherin/Fc Chimera, CF (R&D Systems Cat#861-PC) (human, UniProt P22223 108-654); assay: as above
[8] = target: T4, rHuman HGF R/c-MET/Fc Chimera, CF (R&D Systems Cat#358-MT/CF) (human, UniProt P08581 25-932); assay: as above
[9] = target: T5, rHuman Erythropoietin R/Fc Chimera, CF (R&D Systems Cat#963-ER) (human, UniProt P19235 25-250); assay: as above
[10] = target: T6, rHuman Notch-1/Fc Chimera, CF (R&D Systems Cat#3647-TK) (human); assay: as above
T6 chain: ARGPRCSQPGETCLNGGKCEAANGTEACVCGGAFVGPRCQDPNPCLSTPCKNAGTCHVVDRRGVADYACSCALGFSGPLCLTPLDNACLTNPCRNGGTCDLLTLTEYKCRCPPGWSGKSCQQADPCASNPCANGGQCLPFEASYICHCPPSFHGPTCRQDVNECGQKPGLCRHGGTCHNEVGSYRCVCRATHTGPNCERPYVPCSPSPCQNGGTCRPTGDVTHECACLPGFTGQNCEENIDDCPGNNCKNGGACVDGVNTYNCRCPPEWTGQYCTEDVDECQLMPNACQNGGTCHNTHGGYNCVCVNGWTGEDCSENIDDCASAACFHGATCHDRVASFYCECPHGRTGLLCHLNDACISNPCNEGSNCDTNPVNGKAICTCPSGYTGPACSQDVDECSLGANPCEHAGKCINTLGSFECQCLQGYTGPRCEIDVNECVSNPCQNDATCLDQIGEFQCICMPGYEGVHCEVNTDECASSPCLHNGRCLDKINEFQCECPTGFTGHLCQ

[11] = target: T2, rHuman CD44/Fc Chimera, CF (R&D Systems …); assay: ECL Multispot (MSD), antigen spotted on plate, Fab in solution; blank spot 331
[12] = target: T3, rHuman P-Cadherin/Fc Chimera, CF (R&D …); assay: as above
[13] = target: T5, rHuman Erythropoietin R/Fc Chimera, CF …; assay: as above
[14] = target: T6, rHuman Notch-1/Fc Chimera, CF (R&D …); assay: as above
[15] = target: T2, rHuman CD44/Fc Chimera, CF (R&D Systems …); assay: ECL Multispot (MSD), antigen spotted on plate, Fab in solution; blank spot 239
[16] = target: T3, rHuman P-Cadherin/Fc Chimera, CF (R&D …); assay: as above
[17] = target: T4, rHuman HGF R/c-MET/Fc Chimera, CF (R&D …); assay: as above
[18] = target: T5, rHuman Erythropoietin R/Fc Chimera, CF …; assay: as above
[19] = target: T6, rHuman Notch-1/Fc Chimera, CF (R&D …); assay: as above
[20] = target: T2, rHuman CD44/Fc Chimera, CF (R&D Systems …); assay: ECL Multispot (MSD), antigen spotted on plate, Fab in solution; blank spot 206
[21] = target: T3, rHuman P-Cadherin/Fc Chimera, CF (R&D …); assay: as above
[22] = target: T4, rHuman HGF R/c-MET/Fc Chimera, CF (R&D …); assay: as above
[23] = target: T5, rHuman Erythropoietin R/Fc Chimera, CF …; assay: as above
[24] = target: T6, rHuman Notch-1/Fc Chimera, CF (R&D …); assay: as above
[25] = target: T2, rHuman CD44/Fc Chimera, CF (R&D Systems …); assay: ECL Multispot (MSD), antigen spotted on plate, Fab in solution; blank spot 479
[26] = target: T3, rHuman P-Cadherin/Fc Chimera, CF (R&D …); assay: as above
[27] = target: T4, rHuman HGF R/c-MET/Fc Chimera, CF (R&D …); assay: as above
[28] = target: T5, rHuman Erythropoietin R/Fc Chimera, CF …; assay: as above
[29] = target: T6, rHuman Notch-1/Fc Chimera, CF (R&D …); assay: as above

B1: Fab VH1-46_IGHD6-6*01_IGHJ1*01 S102A/S103P/S104F/H111F (APFF) & L6_IGKJ1*01 N93Y (Fab, V domains shown)
VH: QVQLVQSGAEVKKPGASVKVSCKASGYTFTSYYMHWVRQAPGQGLEWMGIINPSGGSTSYAQKFQGRVTMTRDTSTSTVYMELSSLRSEDTAVYYCAREEYAPFSAEYFQFWGQGTLVTVSS
VL: EIVLTQSPATLSLSPGERATLSCRASQSVSSYLAWYQQKPGQAPRLLIYDASNRATGIPARFSGSGSGTDFTLTISSLEPEDFAVYYCQQRSYWPPWTFGQGTKVEIKR
notes: Fab made in E. coli (heavy chain in plasmid A with CH1, His6 and Flag tags; kappa light chain in plasmid C); also called APFF / N93Y
[1]
  ECL signal: 333
[2]
  ECL signal: 541
[3]
  ECL signal: 453
[4]
  ECL signal: 380
[5]
  ECL signal: 499

B2: Fab VH1-46_IGHD6-6*01_IGHJ1*01 S102A/S103P/S104F/H111F (APFF) & L6_IGKJ1*01 W94R (Fab, V domains shown)
VH: QVQLVQSGAEVKKPGASVKVSCKASGYTFTSYYMHWVRQAPGQGLEWMGIINPSGGSTSYAQKFQGRVTMTRDTSTSTVYMELSSLRSEDTAVYYCAREEYAPFSAEYFQFWGQGTLVTVSS
VL: EIVLTQSPATLSLSPGERATLSCRASQSVSSYLAWYQQKPGQAPRLLIYDASNRATGIPARFSGSGSGTDFTLTISSLEPEDFAVYYCQQRSNRPPWTFGQGTKVEIKR
notes: also called APFF / W94R
[6]
  ECL signal: 443
[7]
  ECL signal: 364
[8]
  ECL signal: 293
[9]
  ECL signal: 546
[10]
  ECL signal: 375

B3: Fab VH1-46_IGHD6-6*01_IGHJ1*01 S102A/S103P/S104F/H111F (APFF) & L6_IGKJ1*01 N93H (Fab, V domains shown)
VH: QVQLVQSGAEVKKPGASVKVSCKASGYTFTSYYMHWVRQAPGQGLEWMGIINPSGGSTSYAQKFQGRVTMTRDTSTSTVYMELSSLRSEDTAVYYCAREEYAPFSAEYFQFWGQGTLVTVSS
VL: EIVLTQSPATLSLSPGERATLSCRASQSVSSYLAWYQQKPGQAPRLLIYDASNRATGIPARFSGSGSGTDFTLTISSLEPEDFAVYYCQQRSHWPPWTFGQGTKVEIKR
notes: also called APFF / N93H
[11]
  ECL signal: 345
[12]
  ECL signal: 293
[13]
  ECL signal: 425
[14]
  ECL signal: 342

B4: Fab VH1-46_IGHD6-6*01_IGHJ1*01 S102A/S103P/S104F/H111F (APFF) & L6_IGKJ1*01 N93Q (Fab, V domains shown)
VH: QVQLVQSGAEVKKPGASVKVSCKASGYTFTSYYMHWVRQAPGQGLEWMGIINPSGGSTSYAQKFQGRVTMTRDTSTSTVYMELSSLRSEDTAVYYCAREEYAPFSAEYFQFWGQGTLVTVSS
VL: EIVLTQSPATLSLSPGERATLSCRASQSVSSYLAWYQQKPGQAPRLLIYDASNRATGIPARFSGSGSGTDFTLTISSLEPEDFAVYYCQQRSQWPPWTFGQGTKVEIKR
notes: also called APFF / N93Q
[15]
  ECL signal: 452
[16]
  ECL signal: 304
[17]
  ECL signal: 309
[18]
  ECL signal: 477
[19]
  ECL signal: 310

B5: Fab VH1-46_IGHD6-6*01_IGHJ1*01 S102A/S103P/S104F/H111F (APFF) & L6_IGKJ1*01 N93S (Fab, V domains shown)
VH: QVQLVQSGAEVKKPGASVKVSCKASGYTFTSYYMHWVRQAPGQGLEWMGIINPSGGSTSYAQKFQGRVTMTRDTSTSTVYMELSSLRSEDTAVYYCAREEYAPFSAEYFQFWGQGTLVTVSS
VL: EIVLTQSPATLSLSPGERATLSCRASQSVSSYLAWYQQKPGQAPRLLIYDASNRATGIPARFSGSGSGTDFTLTISSLEPEDFAVYYCQQRSSWPPWTFGQGTKVEIKR
notes: also called APFF / N93S
[20]
  ECL signal: 346
[21]
  ECL signal: 321
[22]
  ECL signal: 328
[23]
  ECL signal: 420
[24]
  ECL signal: 345

B6: Fab VH1-46_IGHD6-6*01_IGHJ1*01 S102A/S103P/S104F/H111F (APFF) & L6_IGKJ1*01 W94S (Fab, V domains shown)
VH: QVQLVQSGAEVKKPGASVKVSCKASGYTFTSYYMHWVRQAPGQGLEWMGIINPSGGSTSYAQKFQGRVTMTRDTSTSTVYMELSSLRSEDTAVYYCAREEYAPFSAEYFQFWGQGTLVTVSS
VL: EIVLTQSPATLSLSPGERATLSCRASQSVSSYLAWYQQKPGQAPRLLIYDASNRATGIPARFSGSGSGTDFTLTISSLEPEDFAVYYCQQRSNSPPWTFGQGTKVEIKR
notes: also called APFF / W94S
[25]
  ECL signal: 469
[26]
  ECL signal: 466
[27]
  ECL signal: 453
[28]
  ECL signal: 506
[29]
  ECL signal: 486
